± gives the uncertainty stated by the source.

A short description of this data set: amyloid nucleation score (Sup35N fusion, yeast selection) (log enrichment); library NNK1; higher = more nucleation; inactive = no reads after selection. Summed up:
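Libraries of peptides of 20 random codons fused to Sup35N were expressed in psi-negative yeast and induced 24 hours with 100 μM copper sulfate. Selection was 7 days at 30°C on medium lacking adenine and uracil, and plasmid inserts were Illumina-sequenced before and after selection. Nucleation score is the DiMSum log enrichment of output over input reads, centred on the mode score of non-aggregating sequences, and sequences with under 100 input reads were left out.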
In the case of RNLLVEFSLVSKWGLSSSWR, the amyloid nucleation score is 0.557 ± 0.51. The same measure for RNMKPIYFLRPTISVNRSNR: 0.594 ± 0.85. Then RNQKGIL, with -0.042 ± 0.23; and RNWYKW, with “inactive”. For RPDALGN, the amyloid nucleation score is -0.97 ± 0.64. Then RPFSDLSWTLDRVWHRPCWY, with 1.04 ± 0.6; and RPILLSSLPIHSERMWSTSL, with -0.257 ± 1.4; and RPNLDWFLRLGFSYKCDDRR, with 4.56 ± 0.13. The substance RPPCCKWRDRRCTWGIS returned an amyloid nucleation score of 0.017 ± 0.51.

Consider RPSWFLTADDRVWFSSTGRG, for which the amyloid nucleation score was found to be 0.053 ± 1.4.

Regarding RQIVEELTSGIVGSLEV, the amyloid nucleation score is -0.48 ± 0.57. The same measure for RQMLLPGMRVGKRC: 0.144 ± 0.36.

The substance RQSSSSHSMNSGQNILPFRL came in with an amyloid nucleation score of 0.279 ± 0.93. The same measure for RRCRVEFLYVHSDYM: 3.79 ± 0.097; for RRHLGRCTRSKLFNPLR: 0.101 ± 0.54; for RRKLACCCRFSVLSSGCVQN: -0.668 ± 1.7.

Substance RRLMNMLEGGHMGG returned an amyloid nucleation score of 0.083 ± 0.29. RRLQSNLSSCEASNPDTLRC displayed an amyloid nucleation score of 0.774 ± 0.36. The same measure for RRQYFN: -0.855 ± 0.45; for RRRFTIGASVCFRQCFYCQG: -0.491 ± 1.6. The same measure for RRRLPGSSPISLGYFSSSLA: -0.509 ± 1.7; for RRTRKGWIMWPGGVDNHGNY: -0.313 ± 1.3; for RRTWNWPTWIMRSRRREGHG: 0.368 ± 0.42.

Consider RSCKLWY, for which the amyloid nucleation score is -0.204 ± 0.85.

Turning to RSCLMSC, the amyloid nucleation score was determined as 0.141 ± 0.54.

Consider RSEATLYRRSSDGVKNVLQK, for which the amyloid nucleation score was -0.535 ± 0.32. RSFFPSNRDTTRPQATFVAR: the amyloid nucleation score was 1.31 ± 0.68. RSFIVCSRNRVGLTNFRCLE had an amyloid nucleation score of 0.364 ± 0.84.

As to RSFSCLSQVFTYVPLTVRET, the amyloid nucleation score was determined as 0.22 ± 0.6. Substance RSHQSQGMPSLFNLSLVLFY gave an amyloid nucleation score of 6.489 ± 0.064.

As for RSLALEKLCSWSV, the amyloid nucleation score was -1.38 ± 2.7. Then RSLQDGILKTKNCL, with 0.659 ± 0.24; and RSNFELSLSALKVMLFVGHK, with “inactive”. RSQFWHFQWWTKSHNIMGLD showed an amyloid nucleation score of 0.803 ± 1.1. The same measure for RSQSCLVYYWTRFRPVYRFA: 0.671 ± 0.29; for RSRVLRMLFPAGEDYQLHMV: 0.8 ± 0.65. Then RSSSHYRSDERPIDFVNEQE, with -1.16 ± 0.77; and RSTKKFSPQDTPHSLHVKKG, with 0.574 ± 0.42. The same measure for RSVNSETQKFMRWFMRVWTP: -0.332 ± 0.33; for RSVRCVLLVAINRVMLG: 0.52 ± 0.67.

Substance RSWLLIKLTSQHASKMLVTG showed an amyloid nucleation score of 0.569 ± 0.46.

RSYGLAFGYFHNHVRSFARV came in with an amyloid nucleation score of -0.735 ± 0.81. The same measure for RTGYPGSEVMGTRSFLSRNS: -0.385 ± 1.9; for RTVPTRWACVLVSGVWRYGA: 0.504 ± 0.46. The same measure for RTWAEWCLVLVSGFGSGAML: 0.086 ± 0.54; for RTYKINGQSKFSLACITTLS: -0.125 ± 0.7. Regarding RVIGTGYECTNATEDSLSYL, the amyloid nucleation score entry was “inactive”. Then RVKVGSRCVSQFLSTLVQRS, with -0.266 ± 1.4; and RVPAFRY, with “inactive”; and RVRNMPTPSLSHMNLFSSVG, with -0.038 ± 0.35. The substance RVSAMNEGMRIVCWLVFFRP returned an amyloid nucleation score of -0.166 ± 0.9. Then RVTYETNGLWGKNVRYDIVN, with 0.305 ± 0.34. Then RVVVQNI, with 1.18 ± 0.97; and RVYENNIY, with -1.05 ± 1.7; and RWDSRQGFSRASQVARRADS, with -0.391 ± 0.39. The same measure for RWGRESRLRV: -0.122 ± 0.29; for RWNRTRFPHLYCKIGEKCIY: 0.312 ± 0.33; for RWRFEVIKVTSFYMSFLKSA: 0.234 ± 0.47. For the substance RWSRI, the amyloid nucleation score is -0.253 ± 0.23.

Substance RWSVSINWTRSEEHDFRNCV registered an amyloid nucleation score of 1.37 ± 0.43. The same measure for RWSYA: 0.981 ± 0.58; for RWVTSLRPNLDLS: 0.869 ± 0.52; for RWVVSVPISCARACFSG: 0.579 ± 0.73. Then RWWSWCSFTSSIFYCYLLCA, with 2.2 ± 0.13; and RYARWYTQCWTKQRVWRPLD, with 0.984 ± 0.3. As for RYCCHMSRSTYNIICCRWTN, the amyloid nucleation score entry is “inactive”. The same measure for RYCNKTFSTLSPVHLF: 1.11 ± 0.97; for RYKIQPAIPVQEGLMGLSDP: 0.282 ± 0.43; for RYLFLDWSSESRCPFAASNE: 0.104 ± 0.84. Then RYMVSCRGGGKWQPPLFDMR, with 1.23 ± 0.66; and RYRNVVRSFFNEYRLCPGIE, with -0.235 ± 1.4; and RYRPSVCRS, with 0.872 ± 0.54. Then RYRRATTQFAKGHCRSLSFK, with 0.91 ± 0.47. RYVGLGGFM yielded an amyloid nucleation score of -0.655 ± 0.46. Then RYVHSAQLFVNATPHRLRLV, with 0.578 ± 0.34; and RYWFLSYFHPANNYDDWKNC, with -1.03 ± 1.2. The same measure for SACFYTATVFFMYNSFGSNV: 5.611 ± 0.055; for SADSGSQSEEQSKVMRMVYG: -1.64 ± 0.83. The same measure for SAFFYDSFYRMRLSLFIGYG: 0.63 ± 0.55. Substance SAIYRRWAHRAQSAWQVESR yielded an amyloid nucleation score of 1.94 ± 0.7.

On to SALLVMPRVAVSSTMVGKAT, for which the amyloid nucleation score amounted to 0.938 ± 0.45. The substance SANRA yielded an amyloid nucleation score of 0.62 ± 0.41.

On to SASDVWCLQMLRSVYFPPQG, for which the amyloid nucleation score result was “inactive”. Then SASLS, with 0.396 ± 0.71. The same measure for SASYNFTSCFKFLRRKIVIK: 0.196 ± 0.24; for SATPGRGY: 0.851 ± 0.24; for SAWCRSIM: 0.952 ± 0.27. Then SCEGGCAGSCGVP, with -0.641 ± 1.5. In turn, SCFFKKMDMDT came in with an amyloid nucleation score of 0.436 ± 0.69.

Substance SCFLC showed an amyloid nucleation score of 1.4 ± 0.18. Then SCLNVNVMLYSWESVGPKSG, with “inactive”; and SCMESSVTL, with 0.656 ± 0.35. Then SCMTPMYRCSILLLA, with -0.306 ± 0.42. Then SCRSRTYERCLSLVNMEREG, with 3.27 ± 0.13. As for SCSPPIA, the amyloid nucleation score was 0.223 ± 0.46.

In the case of SCTWYKFWRKSIAMILAILS, the amyloid nucleation score amounted to 0.169 ± 0.9. Then SCVAVRLLWQDMHPRANEPR, with 3.34 ± 0.13; and SCVYCMSRSNWILVWMALLQ, with 0.614 ± 0.45. Then SDFVWRCFAMSIRLKRLYRS, with -0.68 ± 1.7; and SDFYLGSRVTCGLNLSMAMG, with 0.686 ± 0.62. The same measure for SDGCYALIWFGREQ: -1.24 ± 1.1; for SDIMDFEY: “inactive”. The substance SDMSPNTGFG displayed an amyloid nucleation score of 0.073 ± 0.8.

In the case of SDNIYVMAWCSCNAARSIVF, the amyloid nucleation score came to 0.616 ± 0.18.

SDSEGYLVEGWY: the amyloid nucleation score came out at 0.882 ± 0.87. Substance SDSIVNKKIVRWYRVFRIGC displayed an amyloid nucleation score of 1.19 ± 0.51. Then SDVVFYFGDAGFRMLSEDSR, with -0.326 ± 0.55; and SDYGLGMSDWGDFMDRVGLR, with 0.527 ± 1.2. Then SDYMLNFCYSGLIVRMVFAA, with -0.508 ± 0.98; and SEGCMSGRLCDRGVASFVWL, with 0.7 ± 0.97; and SEGSLLYTMWGTLVDWSSCV, with -1.08 ± 1.4. Then SEIYSTWNKV, with 0.002 ± 0.48; and SELWPRVDYCLATYSINSYA, with -0.234 ± 0.3; and SEMHHCTRGG, with -0.167 ± 0.9. SESTYYDIQLPVHMLVDMSE yielded an amyloid nucleation score of 0.257 ± 0.24.

SETYTPDRYNVRT: the amyloid nucleation score turned out to be 0.536 ± 1.4. The same measure for SEWAMRITLATASSQTGGSE: 0.235 ± 0.32; for SEWIKLRVRLDLSLVAFKII: 0.686 ± 0.39. For the substance SFAFAAAYAGEEENRLLMRL, the amyloid nucleation score was -0.478 ± 0.34.

Take SFDGDRLNVVMAQWL: the amyloid nucleation score is -0.357 ± 0.58. Then SFDLGYPIFCKYTRT, with 0.576 ± 0.52; and SFEDLEM, with 0.457 ± 0.85. Then SFFRNLLYFMIRCGNGYRET, with -0.109 ± 0.93.

For the substance SFGVTFHWN, the amyloid nucleation score was 2.36 ± 0.28. Then SFLLNPTADMNHCFGDVFGG, with -1.44 ± 1.4; and SFLNMGCRTVYRC, with 0.331 ± 0.61; and SFLSCRWLVFRLMKLRYICA, with 0.444 ± 1.4. The substance SFMAVSKGFMTIISSYYLC showed an amyloid nucleation score of -0.662 ± 0.32.

With SFNHYMFLYFVISGWSSPQA, the amyloid nucleation score stood at 1.1 ± 0.55. Then SFQFVSSCDIRRFAISRATG, with -0.152 ± 0.47; and SFRKRQVVLVSANNDSVWKC, with -0.097 ± 0.57; and SFSIGSFSAPLVAERFCCYT, with 0.163 ± 0.48. In the case of SFSWLSRMTR, the amyloid nucleation score amounted to 2 ± 0.1. Then SFTYLCFKQILKPKCTLLAP, with “inactive”. Then SFVHYFKESLAVSSLIRLSN, with -0.333 ± 1.1; and SFVSYYLLS, with -1.09 ± 1.9. The same measure for SFVYS: -0.157 ± 0.4; for SGAYLNKGFSVLAFYIIIVK: 1.81 ± 0.26; for SGCSRRCWLGSRPGSWGACC: 0.698 ± 0.45. In the case of SGCVQLM, the amyloid nucleation score was 1.32 ± 0.74. Then SGCWT, with 0.331 ± 0.8.
